Tests used:
[1] = target: Recombinant PSMA-His (sino biologicals) (UniProt Q04609); experiment: SPR, Biacore T200, pH 6.5; antibody captured on Protein A chip, PSMA-His as analyte, 1:1 Langmuir fit
[2] = target: Recombinant PSMA-His (sino biologicals) (UniProt Q04609); experiment: SPR, Biacore T200, pH 7; antibody captured on Protein A chip, PSMA-His as analyte, 1:1 Langmuir fit
[3] = target: Recombinant PSMA-His (sino biologicals) (UniProt Q04609); experiment: SPR, Biacore T200, pH 6; antibody captured on Protein A chip, PSMA-His as analyte, 1:1 Langmuir fit
[4] = target: Recombinant PSMA-His (sino biologicals) (UniProt Q04609); experiment: SPR, Biacore T200, pH 7.4; antibody captured on Protein A chip, PSMA-His as analyte, 1:1 Langmuir fit

Chain of Recombinant PSMA-His (sino biologicals) (Q04609 44-750 limits assumed): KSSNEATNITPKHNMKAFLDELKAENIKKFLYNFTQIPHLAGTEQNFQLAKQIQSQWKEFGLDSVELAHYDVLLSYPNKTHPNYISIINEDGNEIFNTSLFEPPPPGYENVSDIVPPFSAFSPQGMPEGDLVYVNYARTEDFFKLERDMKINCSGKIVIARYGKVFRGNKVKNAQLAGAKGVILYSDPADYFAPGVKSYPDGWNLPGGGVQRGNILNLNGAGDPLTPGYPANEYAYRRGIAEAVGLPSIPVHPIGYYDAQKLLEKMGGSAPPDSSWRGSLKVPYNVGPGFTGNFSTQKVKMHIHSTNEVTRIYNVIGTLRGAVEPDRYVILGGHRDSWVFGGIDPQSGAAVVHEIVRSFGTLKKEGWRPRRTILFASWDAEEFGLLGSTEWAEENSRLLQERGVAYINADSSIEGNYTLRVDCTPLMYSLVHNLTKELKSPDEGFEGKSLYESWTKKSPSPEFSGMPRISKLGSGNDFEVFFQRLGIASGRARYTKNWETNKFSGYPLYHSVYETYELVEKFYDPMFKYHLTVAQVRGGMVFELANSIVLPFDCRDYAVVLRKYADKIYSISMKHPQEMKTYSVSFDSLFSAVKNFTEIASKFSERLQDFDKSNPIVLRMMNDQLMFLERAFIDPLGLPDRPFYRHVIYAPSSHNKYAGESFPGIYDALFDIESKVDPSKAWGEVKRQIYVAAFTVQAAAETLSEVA

## Anti-PSMA antibody J591 (UPenn)
[1]
  Kd: 0.984 nM
[2]
  Kd: 2.54 nM
[3]
  Kd: 0.551 nM
[4]
  Kd: 2.76 nM

— patent US20240252534A1
